These results are taken from paper PMC11765575 (International Journal of Molecular Sciences, 2025).

This test deals with T1, osteocalcin C-terminal 7-residue peptide BGP-C7 (human).
T1 construct: C-terminal 7 residues of human osteocalcin (bone Gla protein, BGP), printed as NH2-RRFYGPV-COOH; Free N- and C-termini as printed (NH2-RRFYGPV-COOH); also called antigen peptide; osteocalcin C-terminal peptide
T1 chain: RRFYGPV
As to the kind of experiment: crystal structure; KTM219 Fab with three molar excess BGP-C7, complex purified by gel filtration; crystallised at 20 °C, sitting drop, 0.07 M citric acid, 0.03 M Bis-tris propane (pH 3.4), 16% w/v PEG 3350, microseeding; refined to 2.30 Å. The note with it: both partners purified. On the technique in general: In gel filtration, larger molecules generally elute earlier.

B1: Fab fragment of anti-osteocalcin C-terminal peptide antibody KTM219 (Fab, V domains shown)
VH: QVKLQQSGAEFVKAGASVKLSCKTSGYTFNNYWIHWVKQSPGQGLEWIGEIDPSDGYSNYNQKFKGKATLTVDKSSSTAYMHLNSLTSEDSAVYYCTSSTSVGGSWGQGTTVTVSS
VL: DIELTQSPLSLPVSLGDQASISCTSSQSLLHSNGDTYLHWYLQKPGQSPKLLIYTLSNRFSGVPDRFSGSGSGTDFTLKISRVEAADLGIYFCSQTTHVPYTFGGGTKLEIK
notes: heavy chain (VH-CH1) of KTM219 Fab; light chain (VL-CL) of KTM219 Fab; also called KTM219 Fab
As for B1, the binding result is recorded as “binds”.
